Experimental findings from paper PMC11359734, “Two enzymes contribute to citrate production in the mitochondrion of Toxoplasma gondii” (The Journal of Biological Chemistry, 2024) are described below.

Substrate in series [1]: CC(=O)SCCNC(=O)CCNC(=O)[C@H](O)C(C)(C)COP(=O)(O)OP(=O)(O)OC[C@H]1O[C@@H](n2cnc3c(N)ncnc32)[C@H](O)[C@@H]1OP(=O)(O)O
In words: citrate synthase kit, OD412, 96-well plate. In kind it is biochemical, Toxoplasma gondii. The note with it: co-substrate oxaloacetate.

Substrate in series [2]: O=C(O)CC(=O)C(=O)O
In words: citrate synthase kit, OD412, 96-well plate. Type of series: biochemical, Toxoplasma gondii. The note with it: co-substrate acetyl-CoA.

B1: TgCS1 (Toxoplasma gondii) (protein)
chain: SARSVCGGLSNAEARAAVEAALDALAEKVQEAAEPKRELLKTLRKEHGTVVISEATLSTVCGGMRGLTAILTETSTLHAEKGILYRGLTINECLAKLPRMHKEEYPAVEGLIWFLMTGSIPTVNEVELLSNALYALSLSSASSSPSAPFIPPHVGKVLDAVPPSTHPMTQLVMAAAALQPTSELAQAYRHKTVSRHDLWKPALADALSLIAKNAVMAARIFRRSFRDGQEIDPAANFGHMMGFNSKEHQELFRLYLFLHADHEGGNVSAHAAHVVGSALSDPFLAFSAGMAGLAGPLHGLANQECLNWLRDVHCKLNGAAPTRENVKKIAEDTLASGRVIPGYGHAVLRVTDPRFTAQREFALKYLKDDELFQLLNVAYNTIPDVLLATGKVKNPYPNVDCHSGVLLQHFGITEADFYTVLFGVSRAIGIACQYVWDRILGLPIERPKSTTLDLLKAACVERKGN
notes: residues 95-559 (N-terminal part removed), His-tagged fusion from pESUMO vector, expressed in E. coli Transetta (DE3), Ni2+ column
For B1, the Km (as a rule, the substrate concentration at which the rate is half of its maximum) was determined as 0.4693 µM in series [1] and 1.423 µM in series [2].

B2: TgPrpC (Toxoplasma gondii) (protein)
chain: QSGVHVPTAPSDCAFSPDWRSVCCSQTFSAVSTTTLERQITKENSKNGIECLNAESENCFGFALLLRHRCGLHSGSVDPPLCSLTRRKPTWQRQTTAFLSSTMARQPLETSYEQRKDSEFSPGLEGVVAGESAISSVGPASLAGLTYRGYRIDDLTEKATFEEVVFLLLHDRLPTKQELDAQHQELVLARRLPPSLKACLEYFPKNSHPMDVVRTGCSMMGMLEQENAPPDQQAKIGLRLIGMYSSMLLYWYHYAHHGIRICEETDPADSVAAHFLKLLNQHSSGPHPLEVKAVDISLILYAEHDFNASTFAARVTAATRSDIYSAICSAIGTLKGPLHGGANEAAIMFLRKLRDMQQADQELESIWRHHERVMGFGHRLYKEGDPRSHIMMKVALDLAQNAPKKDPNLVQIAQHIEERMEKEKHLPANVDFPCALAYHQCGIPTDLYTPLFVLARTAGWTAHIMEQRANNRLIRPVSHYVGPPVRPFPSFEEREKLANPSEQSRSR
notes: residues 113-619 (N-terminal part removed), His-tagged fusion from pESUMO vector, expressed in E. coli Transetta (DE3), Ni2+ column
B2: the Km in series [1] came out at 1.169 µM; in series [2] it was 1.661 µM.
